We go through one substance from publication PMC11810782.

For the assay, the target named is GFP–TGN46 (UniProt O43493). Description: single-molecule GFP step-photobleaching by TIRF (NativeNanoBleach); ChloroSMA60-extracted total membrane of cells expressing GFP–TGN46 passed over glass slides with streptavidin and biotinylated GFP nanobody; discs captured and GFP bleaching steps counted; 1,000–1,500 particles for each biological replicate, corrected for GFP maturation efficiency.

Chain of GFP–TGN46, O43493 22-437 (natural protein; other documents disagree on this pair) (O43493 22-437): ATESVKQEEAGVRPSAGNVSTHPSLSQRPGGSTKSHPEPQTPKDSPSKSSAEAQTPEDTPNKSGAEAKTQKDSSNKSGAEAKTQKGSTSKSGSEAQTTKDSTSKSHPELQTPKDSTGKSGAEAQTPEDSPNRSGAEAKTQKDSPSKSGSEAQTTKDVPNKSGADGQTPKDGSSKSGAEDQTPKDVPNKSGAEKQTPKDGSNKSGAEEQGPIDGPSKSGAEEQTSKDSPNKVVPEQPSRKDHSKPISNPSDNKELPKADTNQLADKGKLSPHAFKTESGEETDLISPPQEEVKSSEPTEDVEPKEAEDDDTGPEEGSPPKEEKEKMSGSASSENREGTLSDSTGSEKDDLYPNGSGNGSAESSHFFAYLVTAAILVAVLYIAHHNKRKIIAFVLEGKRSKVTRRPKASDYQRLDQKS

“GFP–TGN46, O43493 22-437 (natural protein; other documents disagree on this pair)”: the stoichiometry N (as a rule, the number of molecules, sites or subunits per partner or assembly) was 1 to 4.
